{
  "source": "patent US20240417436A1",
  "about": "(BRIGHT PEAK THERAPEUTICS, published 2024)",
  "binders": {"B1": {"name": "CMP-328 (ligand)", "chain": "APTSSSTKKTQLQLEHLLLDLQEILNGINNYKNPKLTR[Nle]L[hSer][Yn3(3)]KF[Ygp(3)][Nle]PKKATELKHLQCLEEELKPLEEVL[hSer]LAQSKNFHLRPRDLISNINVIVLELKGSETTF[hSer]CEYADETATIVEFLNRWITFSQSIISTLT", "modifications": "disulfide 58-105; linker 9-23 via cleavable peptide RGRRVANLVG; also: macrocycle: cleavable peptide bridging Lys9 and Glu23 side chains (structure drawing only)"}, "B2": {"name": "CMP-165 (ligand)", "chain": "APTSSSTKKTQLQLEHLLLDLQKILNGINNYKNPKLTR[Nle]L[hSer][Yn3]KF[Ygp][Nle]PKKATELKHLQCLEEELKPLEEVL[hSer]LAQSKNFHLRPRDLISNINVIVLELKGSETTF[hSer]CEYADETATIVEFLNRWITFSQSIISTLT", "modifications": "disulfide 58-105 (inferred); bridge N-23; not fully specified (bridges)"}, "B3": {"name": "CMP-166 (ligand)", "chain": "APTSSSTKKTQLQLEHLLLDLQKILNGINNYKNPKLTR[Nle]L[hSer][Yn3]KF[Ygp][Nle]PKKATELKHLQCLEEELKPLEEVL[hSer]LAQSKNFHLRPRDLISNINVIVLELKGSETTF[hSer]CEYADETATIVEFLNRWITFSQSIISTLT", "modifications": "disulfide 58-105 (inferred); bridge N-23; not fully specified (bridges); also: cleavable peptide (sequence not given here) joined to N-terminus via glutaryl-PEG4 and to Lys23 side chain"}, "B4": {"name": "CMP-167 (ligand)", "chain": "APTSSSTKKTQLQLEHLLLDLQKILNGINNYKNPKLTR[Nle]L[hSer][Yn3]KF[Ygp][Nle]PKKATELKHLQCLEEELKPLEEVL[hSer]LAQSKNFHLRPRDLISNINVIVLELKGSETTF[hSer]CEYADETATIVEFLNRWITFSQSIISTLT", "modifications": "disulfide 58-105 (inferred); bridge N-23; not fully specified (bridges); also: cleavable peptide (sequence not given here) joined to N-terminus via glutaryl-PEG9 and to Lys23 side chain"}, "B5": {"name": "CMP-313 (ligand)", "chain": "APTSSSTKKTQLQLEHLLLDLQK(KKRGRRVANLVG)ILNGINNYKNPKLTR[Nle]L[hSer][Yn3(3)]KF[Ygp(3)][Nle]PKKATELKHLQCLEEELKPLEEVL[hSer]LAQSKNFHLRPRDLISNINVIVLELKGSETTF[hSer]CEYADETATIVEFLNRWITFSQSIISTLT", "modifications": "disulfide 58-105; also: branched 27x PEG chains on the attached peptide"}},
  "key": {"[1]": {"molecular_target": "T1, Avi-Tag Fc with human IL-2R beta and IL-2R gamma attached (Acrobiosystems ACRB-ILG-H82F3-25UG) (human, UniProt P14784 27-239; P31785 23-262)", "T1 construct": "bought heterodimer; also called CD122 CD132; CD122/CD132 complex", "T1 sequence (looked up) 1": "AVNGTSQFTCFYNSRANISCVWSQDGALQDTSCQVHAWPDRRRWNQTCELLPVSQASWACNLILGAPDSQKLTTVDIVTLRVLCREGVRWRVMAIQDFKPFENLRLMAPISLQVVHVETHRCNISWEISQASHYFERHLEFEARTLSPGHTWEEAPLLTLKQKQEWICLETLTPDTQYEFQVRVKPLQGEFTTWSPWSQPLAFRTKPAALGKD", "T1 sequence (looked up) 2": "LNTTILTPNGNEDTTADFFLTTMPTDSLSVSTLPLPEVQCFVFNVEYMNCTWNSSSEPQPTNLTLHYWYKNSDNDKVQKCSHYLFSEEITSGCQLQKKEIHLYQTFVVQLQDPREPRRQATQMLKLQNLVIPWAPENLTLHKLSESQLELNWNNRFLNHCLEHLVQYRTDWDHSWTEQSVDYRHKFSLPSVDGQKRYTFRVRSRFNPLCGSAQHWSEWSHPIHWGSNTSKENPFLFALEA", "experiment": "BLI (Octet), receptor on SAX2 sensor, IL-2 as analyte", "description": "(§1) Bilayer interferometry (BLI) assays were used to measure the binding constants between activatable IL-2 polypeptides (and activated versions thereof) to IL-2 receptor subunits or receptor complexes. BLI assays were conducted on an Octet® R8 instrument. Assay plates were 96 well, polypropylene, F-bottom (chimney well), black microplates (Greiner Bio-one, Cat. No: 655209). The biosensors were Octet® SAX2 (Sartorius, Cat. No: 18-5136). The assay buffer was 1× Kinetic Buffer (Sartorius, Cat. no: 18-5136) or Phosphate Buffered Saline (PBS) that contained 0.02% (v: v) Tween 20 (Polysorbate 20) and 0.1% (w/v) bovine serum albumin (BSA). The sensor was regenerated between measurements in 10 mM glycine pH 2.7 buffer.\n(§2) Sensor attached receptors were either recombinant human IL-2 receptor beta containing a His-tag and Avi-Tag™ (R&D Systems™ #AVI10459) or an Avi-Tag™ Fc with human IL-2R beta and IL-2R gamma attached (Acrobiosystems Cat. no: ACRB-ILG-H82F3-25UG). Receptors were reconstituted from lyophilized powder to 500 μg/ml in PBS. Analytes were diluted in Kinetic buffer to 300 nM, then serially diluted to lower concentrations."}, "[2]": {"molecular_target": "T2, recombinant human IL-2 receptor beta containing a His-tag and Avi-Tag (R&D Systems #AVI10459) (human, UniProt P14784 27-239)", "T2 construct": "bought protein, held on the Octet SAX2 sensor; also called CD122; IL-2Rβ", "T2 sequence (looked up)": "T1 sequence (looked up) 1", "experiment": "BLI (Octet), receptor on SAX2 sensor, IL-2 as analyte", "description": "as §1, §2"}, "[3]": {"molecular_target": "T2, recombinant human IL-2 receptor beta …", "experiment": "BLI (Octet), receptor on SAX2 sensor, IL-2 as analyte; construct CMP-328", "description": "as §1, §2"}, "[4]": {"molecular_target": "T2, recombinant human IL-2 receptor beta …", "experiment": "BLI (Octet), receptor on SAX2 sensor, IL-2 as analyte; construct CMP-165, intact (not the MMP2-treated row r16)", "description": "as §1, §2"}, "[5]": {"molecular_target": "T2, recombinant human IL-2 receptor beta …", "experiment": "BLI (Octet), receptor on SAX2 sensor, IL-2 as analyte; construct CMP-166, intact (not the MMP2-treated row r19)", "description": "as §1, §2"}, "[6]": {"molecular_target": "T2, recombinant human IL-2 receptor beta …", "experiment": "BLI (Octet), receptor on SAX2 sensor, IL-2 as analyte; construct CMP-167, intact (not the MMP2-treated row r22)", "description": "as §1, §2"}, "[7]": {"molecular_target": "T2, recombinant human IL-2 receptor beta …", "experiment": "BLI (Octet), receptor on SAX2 sensor, IL-2 as analyte; construct CMP-313", "description": "as §1, §2"}},
  "note": "*1 amine or outer side, *2 acyl side, *3 side chain or, on linkers, in order; H or OH if unused. Bridges are numbered along the chain shown (N, C = ends). Primed or numbered codes have the meaning given here. [ ]: non-standard residue; d: D form. cleavable peptide RGRRVANLVG = CC(C)C[C@H](NC(=O)[C@H](CC(N)=O)NC(=O)[C@H](C)NC(=O)[C@@H](NC(=O)[C@H](CCCNC(=N)N)NC(=O)[C@H](CCCNC(=N)N)NC(=O)CNC(=O)[C@H](CCCNC(=N)N)N[*:1])C(C)C)C(=O)N[C@H](C(=O)NCC(=O)[*:2])C(C)C; Ygp = O-(8x polyethylene glycol-amino)-tyrosine; Yn3 = O-(9x polyethylene glycol-azido)-tyrosine; Ygp(3) = O-(PEG8-amino)-tyrosine; Yn3(3) = O-(PEG9-azido)-tyrosine; hSer = N[C@@H](CCO)C(=O)O; Nle = CCCC[C@H](N)C(=O)O",
  "data": [
    {"binder": "B1", "values": [
      {"measurement": "Kd", "setting": "[1]", "value": 24.9, "unit": "nM"},
      {"measurement": "koff", "setting": "[1]", "value": 0.00194, "unit": "s⁻¹"},
      {"measurement": "kon", "setting": "[1]", "value": 77800, "unit": "M⁻¹ s⁻¹"},
      {"measurement": "koff", "setting": "[2]", "value": 0.00154, "unit": "s⁻¹"},
      {"measurement": "kon", "setting": "[2]", "value": "4.52e+07", "unit": "M⁻¹ s⁻¹"},
      {"measurement": "Kd", "setting": "[3]", "value": 0.034, "unit": "nM"}
    ]},
    {"binder": "B2", "values": [
      {"measurement": "Kd", "setting": "[4]", "value": 44200, "unit": "nM"}
    ]},
    {"binder": "B3", "values": [
      {"measurement": "Kd", "setting": "[5]", "value": 614, "unit": "nM"}
    ]},
    {"binder": "B4", "values": [
      {"measurement": "Kd", "setting": "[6]", "value": 215, "unit": "nM"}
    ]},
    {"binder": "B5", "values": [
      {"measurement": "koff", "setting": "[1]", "value": 0.00148, "unit": "s⁻¹"},
      {"measurement": "Kd", "setting": "[7]", "value": 163, "unit": "nM"}
    ]}
  ]
}
